# Reference: US20230192881A1 (EDESA BIOTECH RESEARCH, published 2023)
# Where a chain is given by its changes, count along the chain named. Values joined by “and” are separate entries in the source; they are usually repeats but may differ in a detail not shown here. Equal entries are not always repeated.
# B1: NI-0101 (antibody, human IgG1, kappa)
# heavy: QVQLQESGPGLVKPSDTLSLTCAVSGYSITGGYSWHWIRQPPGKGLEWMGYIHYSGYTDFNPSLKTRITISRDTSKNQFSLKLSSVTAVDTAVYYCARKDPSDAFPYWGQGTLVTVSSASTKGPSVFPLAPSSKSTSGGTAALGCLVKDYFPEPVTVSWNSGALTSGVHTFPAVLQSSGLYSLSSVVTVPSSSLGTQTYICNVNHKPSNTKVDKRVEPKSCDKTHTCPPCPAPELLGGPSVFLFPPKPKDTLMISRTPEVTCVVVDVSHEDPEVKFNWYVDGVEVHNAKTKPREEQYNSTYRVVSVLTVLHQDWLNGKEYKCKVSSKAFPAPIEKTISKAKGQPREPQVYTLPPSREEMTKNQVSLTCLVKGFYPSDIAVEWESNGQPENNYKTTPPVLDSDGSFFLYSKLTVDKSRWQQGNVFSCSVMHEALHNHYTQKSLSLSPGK
# light: EIVLTQSPDFQSVTPKEKVTITCRASQSISDHLHWYQQKPDQSPKLLIKYASHAISGVPSRFSGSGSGTDFTLTINSLEAEDAATYYCQQGHSFPLTFGGGTKVEIKRTVAAPSVFIFPPSDEQLKSGTASVVCLLNNFYPREAKVQWKVDNALQSGNSQESVTEQDSKDSTYSLSSTLTLSKADYEKHKVYACEVTHQGLSSPVTKSFNRGEC
# B2: Hu 15C1 (antibody, V domains shown)
# VH: QVQLQESGPGLVKPSDTLSLTCAVSGYSITGGYSWHWIRQPPGKGLEWMGYIHYSGYTDFNPSLKTRITISRDTSKNQFSLKLSSVTAVDTAVYYCARKDPSDAFPYWGQGTLVTVSS
# VL: EIVLTQSPDFQSVTPKEKVTITCRASQSISDHLHWYQQKPDQSPKLLIKYASHAISGVPSRFSGSGSGTDFTLTINSLEAEDAATYYCQQGHSFPLTFGGGTKVEIK
# notes: the rest is a non-mutated human IgG1 Fc
# B3: 5E3 (antibody, mouse IgG2a, kappa)
# heavy: QIQLVQSGPELKKPGESVKISCKASGYTFTDYVMYWVKQAPGKGLKWMGWINTNTGKPTYADDFKGRFVFSLEASASTANLQISNLKNEDTATYFCTRGNYPGLRVMDAWGQGASVTVSSAKTTAPSVYPLAPVCGDTTGSSVTLGCLVKGYFPEPVTLTWNSGSLSSGVHTFPAVLQSDLYTLSSSVTVTSSTWPSQSITCNVAHPASSTKVDKKIEPRGPTIKPCPPCKCPAPNLLGGPSVFIFPPKIKDVLMISLSPIVTCVVVDVSEDDPDVQISWFVNNVEVHTAQTQTHREDYNSTLRVVSALPIQHQDWMSGKEFKCKVNNKDLPAPIERTISKPKGSVRAPQVYVLPPPEEEMTKKQVTLTCMVTDFMPEDIYVEWTNNGKTELNYKNTEPVLDSDGSYFMYSKLRVEKKNWVERNSYSCSVVHEGLHNHHTTKSFSRTPGK
# light: DIQMTQSPSSMSVSLGDTVTITCRASQDVGIYVNWFQQKPGKSPRRLIFRATNLADGVPSRFSGSRSGSDYSLTISSLGSEDVAGYHCLQYDEYPLTFGSGTKLEIKRADAAPTVSIFPPSSEQLTSGGASVVCFLNNFYPKDINVKWKIDGSERQNGVLNSWTDQDSKDSTYSMSSTLTLTKDEYERHNSYTCEATHKTSTSPIVKSFNRNEC
# notes: Chimeric anti-mouse TLR4 mAb: rat variable regions grafted onto a mouse IgG2a kappa Fc
# Columns and labels:
# human TLR4 [1] = biological target: T1, human TLR4 (human, UniProt O00206 24-839); experiment: KinExA combined with ELISA, average Kd
# T1 construct: also called hTLR4; Toll-like Receptor 4
# T1 sequence (O00206 24-839 limits assumed): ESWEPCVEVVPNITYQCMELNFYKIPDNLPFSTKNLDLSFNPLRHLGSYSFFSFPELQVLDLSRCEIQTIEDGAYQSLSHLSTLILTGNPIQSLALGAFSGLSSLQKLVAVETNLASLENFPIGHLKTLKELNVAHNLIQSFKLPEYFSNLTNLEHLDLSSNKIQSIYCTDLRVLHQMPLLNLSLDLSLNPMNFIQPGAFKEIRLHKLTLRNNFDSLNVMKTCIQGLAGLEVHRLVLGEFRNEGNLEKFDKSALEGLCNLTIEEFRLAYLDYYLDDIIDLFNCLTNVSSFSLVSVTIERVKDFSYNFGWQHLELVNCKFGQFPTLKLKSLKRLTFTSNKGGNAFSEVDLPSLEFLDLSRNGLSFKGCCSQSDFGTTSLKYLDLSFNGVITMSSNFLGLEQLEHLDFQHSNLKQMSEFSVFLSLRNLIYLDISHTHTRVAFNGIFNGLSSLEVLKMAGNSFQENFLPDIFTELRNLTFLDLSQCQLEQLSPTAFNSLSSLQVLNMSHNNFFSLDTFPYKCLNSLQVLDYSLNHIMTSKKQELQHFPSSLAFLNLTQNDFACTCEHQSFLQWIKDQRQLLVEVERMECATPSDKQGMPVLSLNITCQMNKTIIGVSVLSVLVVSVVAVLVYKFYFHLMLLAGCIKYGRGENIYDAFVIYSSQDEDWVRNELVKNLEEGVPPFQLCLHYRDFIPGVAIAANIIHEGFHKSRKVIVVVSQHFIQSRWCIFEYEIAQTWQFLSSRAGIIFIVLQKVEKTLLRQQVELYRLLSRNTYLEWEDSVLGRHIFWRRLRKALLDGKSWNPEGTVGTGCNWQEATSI
# human FcγRIIa 131R [2] = biological target: T2, human FcγRIIa 131R (human, UniProt P12318 36-218, limits assumed); experiment: surface plasmon resonance (refers to Table 9)
# T2 sequence (looked up): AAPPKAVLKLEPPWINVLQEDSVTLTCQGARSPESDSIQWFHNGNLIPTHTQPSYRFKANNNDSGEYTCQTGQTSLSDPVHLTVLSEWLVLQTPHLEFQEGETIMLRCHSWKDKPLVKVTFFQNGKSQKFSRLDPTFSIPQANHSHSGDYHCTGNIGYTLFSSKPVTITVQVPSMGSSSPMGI
# human FcγRI = biological target: T3, human FcγRI (human, UniProt P12314 16-288, limits assumed); experiment: surface plasmon resonance
# T3 construct: also called CD64; FcyRI
# T3 sequence (P12314 16-288 limits assumed): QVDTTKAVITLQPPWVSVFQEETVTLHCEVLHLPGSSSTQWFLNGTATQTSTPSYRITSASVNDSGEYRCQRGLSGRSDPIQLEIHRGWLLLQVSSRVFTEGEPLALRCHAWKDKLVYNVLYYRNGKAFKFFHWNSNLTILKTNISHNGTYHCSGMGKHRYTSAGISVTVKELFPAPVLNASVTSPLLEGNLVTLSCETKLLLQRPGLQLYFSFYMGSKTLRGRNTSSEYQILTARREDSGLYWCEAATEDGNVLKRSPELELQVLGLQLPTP
# human FcγRIIb = biological target: T4, human FcγRIIb (human, UniProt P31994 43-217, limits assumed); experiment: surface plasmon resonance
# T4 construct: also called CD32b
# T4 sequence (looked up): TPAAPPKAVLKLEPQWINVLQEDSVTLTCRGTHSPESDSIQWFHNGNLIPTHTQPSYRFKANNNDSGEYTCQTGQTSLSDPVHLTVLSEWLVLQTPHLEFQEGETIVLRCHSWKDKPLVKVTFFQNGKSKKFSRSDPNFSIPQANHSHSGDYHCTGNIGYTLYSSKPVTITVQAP
# human FcγRIIa 131R [3] = biological target: T2, human FcγRIIa 131R; experiment: surface plasmon resonance
# human FcγRIIa 131H = biological target: T5, human FcγRIIa 131H (human, UniProt P12318 36-218, limits assumed); experiment: surface plasmon resonance
# T5 sequence (looked up): T2 sequence (looked up) with R132H
# human TLR4 [4] = biological target: T1, human TLR4; experiment: cell-based or functional assay
# human TLR4 [5] = biological target: T1, human TLR4; experiment: cell-based or functional assay; remark: listed apart in the source
# human TLR4 [6] = biological target: T1, human TLR4; experiment: KinExA
# mouse FcγRII = biological target: T6, mouse FcγRII (mouse, UniProt P08101 30-210, limits assumed); experiment: method not stated
# T6 construct: also called mFcγRII; mouse FcyRII
# T6 sequence (looked up): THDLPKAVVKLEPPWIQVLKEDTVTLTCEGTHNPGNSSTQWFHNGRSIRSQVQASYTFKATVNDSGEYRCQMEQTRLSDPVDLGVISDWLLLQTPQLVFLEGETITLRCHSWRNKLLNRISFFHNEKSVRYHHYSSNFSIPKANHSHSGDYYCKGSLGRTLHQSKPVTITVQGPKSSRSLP
# mouse FcγRIV = biological target: T7, mouse FcγRIV (mouse, UniProt A0A0B4J1G0 21-203); experiment: method not stated
# T7 construct: also called mFcγRIV
# T7 sequence: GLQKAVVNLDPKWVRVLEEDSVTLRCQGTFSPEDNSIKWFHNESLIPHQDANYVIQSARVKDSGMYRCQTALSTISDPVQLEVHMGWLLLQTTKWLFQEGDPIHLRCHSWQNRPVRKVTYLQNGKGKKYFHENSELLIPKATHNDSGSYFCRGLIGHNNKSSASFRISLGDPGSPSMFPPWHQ
# mouse FcγRI = biological target: T8, mouse FcγRI (mouse, UniProt P26151 25-297, limits assumed); experiment: method not stated
# T8 construct: also called mFcγRI; mouse FcyRI
# T8 sequence (looked up): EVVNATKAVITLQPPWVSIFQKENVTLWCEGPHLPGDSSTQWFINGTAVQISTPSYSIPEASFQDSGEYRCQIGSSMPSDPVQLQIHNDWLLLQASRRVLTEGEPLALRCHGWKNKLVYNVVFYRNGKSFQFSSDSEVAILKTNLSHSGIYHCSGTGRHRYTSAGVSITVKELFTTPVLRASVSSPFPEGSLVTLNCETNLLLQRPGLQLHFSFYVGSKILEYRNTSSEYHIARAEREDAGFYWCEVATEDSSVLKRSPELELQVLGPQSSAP
# mouse FcγRIII = biological target: T9, mouse FcγRIII (mouse, UniProt P08508 31-215, limits assumed); experiment: method not stated
# T9 construct: also called mFcγRIII
# T9 sequence (looked up): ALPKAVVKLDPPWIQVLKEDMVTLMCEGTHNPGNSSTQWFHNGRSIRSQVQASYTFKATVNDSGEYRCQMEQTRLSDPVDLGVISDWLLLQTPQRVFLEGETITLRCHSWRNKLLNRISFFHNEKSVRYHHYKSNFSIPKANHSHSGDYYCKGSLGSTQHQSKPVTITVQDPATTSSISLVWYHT
# mouse FcRn = biological target: T10, mouse FcRn (mouse, UniProt Q61559 22-297; P01887 21-119, limits assumed); experiment: method not stated
# T10 construct: also called mFcRn
# T10 sequence (looked up) 1: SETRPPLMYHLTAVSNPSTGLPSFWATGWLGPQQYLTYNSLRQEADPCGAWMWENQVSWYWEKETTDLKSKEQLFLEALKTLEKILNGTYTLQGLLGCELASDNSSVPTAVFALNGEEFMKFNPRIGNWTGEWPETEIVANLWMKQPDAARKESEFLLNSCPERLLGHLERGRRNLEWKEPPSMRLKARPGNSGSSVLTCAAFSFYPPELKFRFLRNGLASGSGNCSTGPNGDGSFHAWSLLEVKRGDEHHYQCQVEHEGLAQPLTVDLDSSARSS
# T10 sequence (looked up) 2: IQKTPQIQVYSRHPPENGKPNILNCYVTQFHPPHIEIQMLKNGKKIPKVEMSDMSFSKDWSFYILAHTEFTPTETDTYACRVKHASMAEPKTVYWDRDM
# mouse TLR4 [7] = biological target: T11, mouse TLR4 (mouse, UniProt Q9QUK6 26-629, limits assumed); experiment: method not stated, average Kd
# T11 sequence (looked up): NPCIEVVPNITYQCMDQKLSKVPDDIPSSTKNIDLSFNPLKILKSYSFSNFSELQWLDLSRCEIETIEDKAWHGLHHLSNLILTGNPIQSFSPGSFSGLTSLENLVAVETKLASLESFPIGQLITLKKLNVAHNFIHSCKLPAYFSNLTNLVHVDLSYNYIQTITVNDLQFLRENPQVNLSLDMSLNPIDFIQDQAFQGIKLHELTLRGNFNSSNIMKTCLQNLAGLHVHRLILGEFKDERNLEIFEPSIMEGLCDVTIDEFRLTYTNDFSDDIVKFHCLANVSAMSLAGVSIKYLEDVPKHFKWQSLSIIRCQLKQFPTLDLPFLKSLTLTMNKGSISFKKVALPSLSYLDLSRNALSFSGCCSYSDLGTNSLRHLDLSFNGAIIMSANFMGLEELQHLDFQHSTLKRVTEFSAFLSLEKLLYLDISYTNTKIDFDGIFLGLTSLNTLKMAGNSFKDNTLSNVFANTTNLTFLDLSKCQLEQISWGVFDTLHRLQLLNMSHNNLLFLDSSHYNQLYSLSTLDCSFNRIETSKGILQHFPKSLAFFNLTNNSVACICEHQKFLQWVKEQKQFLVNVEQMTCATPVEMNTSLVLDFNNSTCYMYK
# mouse TLR4 [8] = biological target: T11, mouse TLR4; experiment: cell-based or functional assay
binder,measurement,setting,value
B1,Kd,human TLR4 [1],0.139 nM
same,fold higher affinity than to the 131H variant,human FcγRIIa 131R [2],2 fold
same,Kd,human FcγRI,47.3 nM
same,Kd,human FcγRIIb,870 nM
same,Kd,human FcγRIIa 131R [3],151 nM
same,Kd,human FcγRIIa 131H,311 nM
same,"IC50, Blockade of LPS induced TLR4 signalling, human whole blood (FcγRIIaHH)",human TLR4 [4],2.19 nM and 324 ng/mL
same,"IC50, LPS mediated cytokine production in human primary macrophages",human TLR4 [5],0.0104 nM
same,"IC50, LPS-induced IL-6 release in THP1 cells (FcγRIIa 131HH)",human TLR4 [5],0.0027 nM
same,"IC50, LPS-induced IL-6 release in U937 cells (FcγRIIa 131RR)",human TLR4 [5],0.002 nM
same,"IC50, LPS-induced IL-6 release in human whole blood, FcγRIIa 131HH donors",human TLR4 [5],2.19 nM
same,"IC50, LPS-induced IL-6 release in human whole blood, FcγRIIa 131RH donors",human TLR4 [5],0.223 nM
same,"IC50, LPS-induced IL-6 release in human whole blood, FcγRIIa 131RR donors",human TLR4 [5],0.128 nM
same,"IC50, Tenascin-C mediated cytokine production in human primary macrophages",human TLR4 [5],0.022 nM
same,"IC50, nickel mediated cytokine production in human primary macrophages",human TLR4 [5],0.015 nM
B2,Kd,human TLR4 [6],0.139 nM
B3,Kd,mouse FcγRII,3260 nM
same,Kd,mouse FcγRIV,113 nM
same,Kd,mouse FcγRI,50.8 nM
same,Kd,mouse FcγRIII,505 nM
same,Kd,mouse FcRn,2.93 nM
same,Kd,mouse TLR4 [7],0.027 nM
same,"IC50, Blockade of LPS induced TLR4 signalling, mouse whole blood",mouse TLR4 [8],1.16 nM and 173 ng/mL
